According to the RNAGym collection of RNA variant scans (doi:10.1021/acssynbio.7b00057):

B1: Pistol ribozyme (parent)
chain: GGGUCGUUGUUCCAUAAUCGCGUGGAUAUGGCACGCAAGUUUCUACCGGGCACCGUAAAUGUCCGACUGGAGCCGUUCGGGCGGCUAUAAACAGACCUCAGGCCCGAAGCGUGGCGGCACCUGCCGCCGGUGGUAAAAAAGAUCGGAAGAGCACACGUCU

Variants of: B1
Assay: aptazyme ON/OFF ratio, guanine; higher = stronger switching; co-transcriptional cleavage with and without guanine

Point of comparison: U7G G9U U10G C12A C13A, “aptazyme ON/OFF ratio” value 1.12. Against it:
- U7G G9C U11A C12A C13G — higher, 1.27
- U7G G9U U10A C12G C13U — higher, 1.4
- U7G G9U U10A C12G C13A — lower, 1.09
- U7G G9U U10A C12G C13G — higher, 1.24
- U7G G9U C12U — higher, 2.07
- U7G G9U C12A — higher, 1.97
- U7G G9U C12G — higher, 1.42
- U7G G9U U10G U11G C12U C13A — higher, 1.22
- U7G G9U U10G U11G C12U C13U — higher, 1.29
- U7G G9U U10G U11G C12U C13G — lower, 1.05
- U7G G9U U10C U11C C13A — lower, 1.05
- U7G G9U U10C U11C C13U — lower, 1.09
- U7G G9U U10C U11C C13G — lower, 1.07
- U7G G9U C12U C13A — higher, 1.28
- U7G G9U C12U C13G — higher, 1.31
- U7G G9U C12U C13U — higher, 1.18
- U7G G9U U10C U11C C12G C13U — higher, 1.31
- U7G G9U U10C U11C C12G C13A — higher, 1.17
- U7G G9U U10C U11C C12G C13G — higher, 1.2
- U7G U8A G9A C12A C13A — higher, 1.25
- U7G U8A G9A C12A C13U — lower, 1.1
- U7G U8A G9A C12A C13G — lower, 1.11
- U7G G9C U11A C12A — higher, 1.94
- U7G G9C U11A C12U — higher, 1.65
- U7G G9C U11A C12G — higher, 1.65
- U7G U8A G9A — higher, 2.45
- U7G G9U U10A C12U C13U — higher, 1.15
- U7G G9U U10A C12U C13G — higher, 1.14
- U7G G9U U10A C12U C13A — lower, 1.06
- U7G G9U U10A U11G C12A C13A — lower, 1.11
- U7G G9U U10A U11G C12A C13U — the same, 1.12
- U7G G9U U10A U11G C12A C13G — lower, 1.11
- U7G G9U U10C U11A C12G C13A — higher, 1.13
- U7G G9U U10C U11A C12G C13U — higher, 1.26
- U7G G9U U10C U11A C12G C13G — higher, 1.13
- U7G G9U U10A U11C C12U C13U — higher, 1.39
- U7G G9U U10A U11C C12U C13G — higher, 1.27
- U7G G9U U10A U11C C12U C13A — higher, 1.39
- U7G G9U U10A U11A C13A — higher, 1.28
- U7G G9U U10A U11A C13U — higher, 1.39
- U7G G9U U10A U11A C13G — higher, 1.18
- U7G G9U U10G U11A C12A C13A — higher, 1.16
- U7G G9U U10G U11A C12A C13G — lower, 1.06
- U7G G9U U10G U11A C12A C13U — higher, 1.16
- U7G G9C U11A C12G C13G — higher, 1.23
- U7G G9C U11A C12G C13U — higher, 1.36
- U7G G9C U11A C12G C13A — higher, 1.2
- U7G G9U U10A U11G C12A — higher, 1.13
- U7G G9U U10A U11G C12U — higher, 1.4
- U7G G9U U10A U11G C12G — higher, 1.26
- U7G G9C U11G C12A C13A — higher, 1.21
- U7G G9C U11G C12A C13G — higher, 1.31
- U7G G9C U11G C12A C13U — higher, 1.47
- U7G U8A G9A C12G C13A — higher, 1.13
- U7G U8A G9A C12G C13G — lower, 1.04
- U7G U8A G9A C12G C13U — lower, 1.11
- U7G G9U U11G C12U C13G — higher, 1.37
- U7G G9U U11G C12U C13A — higher, 1.31
- U7G G9U U11G C12U C13U — higher, 1.44
- U7G G9U U10G C12A C13U — higher, 1.41
- U7G G9U U10G C12A C13G — the same, 1.12
- U7G G9U U10G U11C C13U — lower, 1.1
- U7G G9U U10G U11C C13G — lower, 1.11
- U7G G9U U10G U11C C13A — higher, 1.2
- U7G G9U U11C C12A — higher, 1.61
- U7G G9U U11C C12U — higher, 2.32
- U7G G9U U11C C12G — higher, 1.74
- U7G G9U U10A U11C C12A C13G — higher, 1.21
- U7G G9U U10A U11C C12A C13U — higher, 1.46
- U7G G9U U10A U11C C12A C13A — higher, 1.24
- U7G G9C U11G C12A — higher, 1.41
- U7G G9C U11G C12U — higher, 1.43
- U7G G9C U11G C12G — higher, 1.31
- U7G G9U U10C U11G C12G C13A — higher, 1.13
- U7G G9U U10C U11G C12G C13U — lower, 1.06
- U7G G9U U10C U11G C12G C13G — the same, 1.12
- U7G G9U U10A U11A C12U — higher, 1.54
- U7G G9U U10A U11A C12A — higher, 1.3
- U7G G9U U10A U11A C12G — higher, 1.41
- U7G G9U U10G U11A C13A — higher, 1.15
- U7G G9U U10G U11A C13U — higher, 1.17
- U7G G9U U10G U11A C13G — higher, 1.16
- U7G G9U U11C C12G C13A — higher, 1.22
- U7G G9U U11C C12G C13U — higher, 1.37
- U7G G9U U11C C12G C13G — higher, 1.26
- U7G G9U U11C C13U — higher, 1.65
- U7G G9U U11C C13A — higher, 1.37
- U7G G9U U11C C13G — lower, 1.05
- U7G G9U U11A C12U — higher, 1.32
- U7G G9U U11A C12G — higher, 1.46
- U7G G9U U11A C12A — higher, 1.56
- U7G G9U U10A U11G C13A — higher, 1.13
- U7G G9U U10A U11G C13U — higher, 1.29
- U7G G9U U10A U11G C13G — higher, 1.15
- U7G G9C U10G U11G C13G — higher, 1.21
- U7G G9C U10G U11G C13A — higher, 1.17
- U7G G9C U10G U11G C13U — higher, 1.36
- U7G G9U U10G U11G C12A C13G — lower, 1.07
- U7G G9U U10G U11G C12A C13U — higher, 1.19
- U7G G9U U10G U11G C12A C13A — lower, 1.11
- U7G G9U U10G U11C C12U C13G — higher, 1.25
- U7G G9U U10G U11C C12U C13U — higher, 1.44
- U7G G9U U10G U11C C12U C13A — higher, 1.23
- U7G G9U U10G C13G — higher, 1.21
- U7G G9U U10G C13U — higher, 1.48
- U7G G9U U10G C13A — higher, 1.39
- U7G G9C U11C C12G C13U — higher, 1.36
- U7G G9C U11C C12G C13G — lower, 1.07
- U7G G9C U11C C12G C13A — higher, 1.35
- U7G G9U U11G C13U — higher, 1.26
- U7G G9U U11G C13G — higher, 1.3
- U7G G9U U11G C13A — higher, 1.3
- U7G U8A C12U — higher, 1.44
- U7G U8A C12A — higher, 1.27
- U7G U8A C12G — higher, 1.35
- U7G G9C U11G C12U C13U — higher, 1.2
- U7G G9C U11G C12U C13G — higher, 1.27
- U7G G9C U11G C12U C13A — higher, 1.43
- U7G G9U U10C U11C C12A C13G — higher, 1.4
- U7G G9U U10C U11C C12A C13A — higher, 1.37
- U7G G9U U10C U11C C12A C13U — higher, 1.47
- U7G G9U U10C C13U — higher, 1.66
- U7G G9U U10C C13A — higher, 1.37
- U7G G9U U10C C13G — lower, 1.1
- U7G U8A C12G C13U — higher, 1.46
- U7G U8A C12G C13G — higher, 1.17
- U7G U8A C12G C13A — higher, 1.51
- U7G G9U U10G U11A C12U — higher, 1.27
- U7G G9U U10G U11A C12G — higher, 1.26
- U7G G9U U10G U11A C12A — higher, 1.15
- U7G G9U U10C U11A C12A C13A — higher, 1.22
- U7G G9U U10C U11A C12A C13G — higher, 1.16
- U7G G9U U10C U11A C12A C13U — higher, 1.36
- U7G G9C U11C C12A C13A — higher, 1.42
- U7G G9C U11C C12A C13G — higher, 1.28
- U7G G9C U11C C12A C13U — higher, 1.5
- U7G G9U U10C C12A C13U — higher, 1.35
- U7G G9U U10C C12A C13A — higher, 1.42
- U7G G9U U10C C12A C13G — higher, 1.21
- U7G G9C U11A C12U C13A — higher, 1.42
- U7G G9C U11A C12U C13U — higher, 1.32
- U7G G9C U11A C12U C13G — higher, 1.33
- U7G G9U U11A C12A C13G — higher, 1.23
- U7G G9U U11A C12A C13A — higher, 1.3
- U7G G9U U11A C12A C13U — higher, 1.43
- U7G G9U U10G C12U — higher, 1.55
- U7G G9U U10G C12G — higher, 1.36
- U7G G9U U10G C12A — higher, 1.7
- U7G G9U U10A C12A C13U — higher, 1.75
- U7G G9U U10A C12A C13G — higher, 1.26
- U7G G9U U10A C12A C13A — higher, 1.38
- U7G G9U U11A C12G C13U — higher, 1.36
- U7G G9U U11A C12G C13G — higher, 1.23
- U7G G9U U11A C12G C13A — lower, 1.1
- U7G G9U U10A U11G C12G C13A — lower, 1.04
- U7G G9U U10A U11G C12G C13U — higher, 1.25
- U7G G9U U10A U11G C12G C13G — higher, 1.14
- U7G G9U U10C U11A C12U C13G — higher, 1.23
- U7G G9U U10C U11A C12U C13U — higher, 1.33
- U7G G9U U10C U11A C12U C13A — higher, 1.33
- U7G G9C U11C C12U — higher, 2.15
- U7G G9C U11C C12A — higher, 2.21
- U7G G9C U11C C12G — higher, 1.65
- U7G G9U U10C C12G C13A — higher, 1.27
- U7G G9U U10C C12G C13G — higher, 1.22
- U7G G9U U10C C12G C13U — higher, 1.29
